The text below walks through data of PMC10703879 (2023).

The target in experiment [1] is T1, BCMAECD-His (monomeric, His-tagged human BCMA extracellular domain) (human, UniProt Q02223-1 1-54).
T1 chain: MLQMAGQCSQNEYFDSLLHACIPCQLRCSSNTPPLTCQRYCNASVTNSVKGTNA
Put plainly: SPR.

The target of experiment [2] is T2, BCMAECD-Fc (dimerized, Fc-tagged human BCMA extracellular domain) (human, UniProt Q02223-1 1-54, not fully specified).
T2 chain: T1 chain
Kind of experiment: SPR.

B1: Nb1 (anti-BCMA nanobody 1 of the cilta-cel CAR) (VHH)
VHH: QVKLEESGGGLVQAGRSLRLSCAASEHTFSSHVMGWFRQAPGKERESVAVIGWRDISTSYADSVKGRFTISRDNAKKTLYLQMNSLKPEDTAVYYCAARRIDAADFDSWGQGTQVTVSS
For the molecule B1, the koff in experiment [1] was 6.52e-05 s⁻¹; in experiment [2], 2.94e-05 s⁻¹.

B2: Nb2 (anti-BCMA nanobody 2 of the cilta-cel CAR) (VHH)
VHH: EVQLVESGGGLVQAGGSLRLSCAASGRTFTMGWFRQAPGKEREFVAAISLSPTLAYYAESVKGRFTISRDNAKNTVVLQMNSLKPEDTALYYCAADRKSVMSIRPDYWGQGTQVTVSS
On to B2, for which the values for the koff in experiment [1] and in experiment [2] were 0.0264 s⁻¹ and 0.0108 s⁻¹, respectively.
